Biological target: HLA-E*01:03 expressed on HLA-E knockout HeLa cells by mRNA transfection (human, UniProt P13747 22-358)
Test: cell-based or functional assay

B1: HLA-E activator receptor (third generation CAR: HLA-E scFv, CD8 hinge, CD28 transmembrane domain, CD28/41BB/CD3 intracellular domain) (receptor)
chain: QVQLRESGPSLVKPSQTLSLTCTVSGFSLTSYGVHWVRQPPGKGLEWLGVIWTGGTTNYNTALMSRLSITKDNSKSQVFLKMNSLQTDDTAIYYCARDGDSYNREAWFAYWGQGTLVTVSAGGGGSGGGGSGGGGSGGQIVLTQSPAVISASPGEKVILTCSASSSVSYMHWFQQKPGTSPKLWIYGTSNLASGVPARFSGGGSGTSYSLTISRMEAEDAATYYCQQRSRYPFTFGSGTKLEIKTTTPAPRPPTPAPTIASQPLSLRPEACRPAAGGAVHTRGLDFACDFWVLVVVGGVLACYSLLVTVAFIIFWVRSKRSRLLHSDYMNMTPRRPGPTRKHYQPYAPPRDFAAYRSKRGRKKLLYIFKQPFMRPVQTTQEEDGCSCRFPEEEEGGCELRVKFSRSADAPAYKQGQNQLYNELNLGRREEYDVLDKRRGRDPEMGGKPRRKNPQEGLYNELQKDKMAEAYSEIGMKGERRRGKGHDGLYQGLSTATKDTYDALHMQALPPR
- EC50 of specific killing of HeLa cells by primary T cells: ~10000 HLA-E molecules

Source: US20250177445A1 (A2 BIOTHERAPEUTICS, published 2025)
